Experimental findings from publication PMC6981144 are described below.

The target of assay [1] is human SNAP_GLP1R (SNAP-tagged glucagon-like peptide-1 receptor) (human) (UniProt P43220). The assay can be described thus: fluorescent ligand labelling of cells, confocal microscopy; transiently transfected YFP-AD293-SNAP_GLP1R cells; increasing concentrations of compound applied for 60 min; control cells without GLP1R.
For assay [2] the target is unchanged.

Sequence of human SNAP_GLP1R (SNAP-tagged glucagon-like peptide-1 receptor) (human) (P43220 24-463): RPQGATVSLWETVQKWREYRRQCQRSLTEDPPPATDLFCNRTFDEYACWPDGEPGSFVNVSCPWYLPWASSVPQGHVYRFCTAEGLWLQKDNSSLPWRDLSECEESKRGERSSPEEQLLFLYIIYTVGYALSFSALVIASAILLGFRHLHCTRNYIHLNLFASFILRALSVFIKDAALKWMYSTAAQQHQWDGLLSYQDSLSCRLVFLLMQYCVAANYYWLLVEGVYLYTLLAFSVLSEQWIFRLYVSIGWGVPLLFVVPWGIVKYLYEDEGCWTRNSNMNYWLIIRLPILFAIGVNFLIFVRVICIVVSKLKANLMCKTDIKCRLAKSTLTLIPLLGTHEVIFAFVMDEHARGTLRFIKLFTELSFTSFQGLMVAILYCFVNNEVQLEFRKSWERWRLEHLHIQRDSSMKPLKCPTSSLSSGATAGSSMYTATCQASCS

Turning to LUXendin555 (peptide), the concentration of maximal labelling in assay [1] came to 600 nM.

In turn, LUXendin645 (peptide) came in with a cAMP production (EC50) in HEK293-SNAP GLP1R cells, 30 min stimulation, with the positive allosteric modulator BETP (25 µM) in assay [2] of 192 nM. In assay [1], this substance gave a concentration of maximal labelling of 250 to 500 nM.
